Test results published in the supplement of paper PMC10567573.

B1: GLT8D2 (parent)
chain: QEAKLLHWNGRHKPWDFPSVHNDL

Variants of: B1
Experiment: protein stability index of a GFP-peptide fusion (GPS, HEK-293T) (PSI 1-6); higher = more stable
Settings: c terminus: a fixed tail appended
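Also: lentivirally expressed fusions sorted by FACS into six bins by GFP to DsRed ratio, PSI derived from sequencing read proportions per bin multiplied by bin number.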

Variant	protein stability index
QEAKLLCWNGRHKPWDFPSVHNDL [H7C]	2.25
QEAKLLDWNGRHKPWDFPSVHNDL [H7D]	3.16
QEAKLLEWNGRHKPWDFPSVHNDL [H7E]	2.98
QEAKLLFWNGRHKPWDFPSVHNDL [H7F]	2.41
QEAKLLGWNGRHKPWDFPSVHNDL [H7G]	2.63
QEAKLLIWNGRHKPWDFPSVHNDL [H7I]	2.25
QEAKLLKWNGRHKPWDFPSVHNDL [H7K]	2.48
QEAKLLLWNGRHKPWDFPSVHNDL [H7L]	2.15
QEAKLLMWNGRHKPWDFPSVHNDL [H7M]	2.56
QEAKLLNWNGRHKPWDFPSVHNDL [H7N]	2.54
QEAKLLPWNGRHKPWDFPSVHNDL [H7P]	2.94
QEAKLLQWNGRHKPWDFPSVHNDL [H7Q]	2.9
QEAKLLRWNGRHKPWDFPSVHNDL [H7R]	2.81
QEAKLLSWNGRHKPWDFPSVHNDL [H7S]	2.69
QEAKLLTWNGRHKPWDFPSVHNDL [H7T]	2.88
QEAKLLVWNGRHKPWDFPSVHNDL [H7V]	2.1
QEAKLLWWNGRHKPWDFPSVHNDL [H7W]	2.84
QEAKLLYWNGRHKPWDFPSVHNDL [H7Y]	1.85
QEAKLLHANGRHKPWDFPSVHNDL [W8A]	3.39
QEAKLLHCNGRHKPWDFPSVHNDL [W8C]	3.2
QEAKLLHDNGRHKPWDFPSVHNDL [W8D]	3.5
QEAKLLHENGRHKPWDFPSVHNDL [W8E]	3.47
QEAKLLHFNGRHKPWDFPSVHNDL [W8F]	2.62
QEAKLLHGNGRHKPWDFPSVHNDL [W8G]	3.6

Variant	protein stability index
QEAKLLHHNGRHKPWDFPSVHNDL [W8H]	2.85
QEAKLLHINGRHKPWDFPSVHNDL [W8I]	2.9
QEAKLLHKNGRHKPWDFPSVHNDL [W8K]	2.69
QEAKLLHLNGRHKPWDFPSVHNDL [W8L]	3.24
QEAKLLHMNGRHKPWDFPSVHNDL [W8M]	2.56
QEAKLLHNNGRHKPWDFPSVHNDL [W8N]	3.46
QEAKLLHPNGRHKPWDFPSVHNDL [W8P]	2.63
QEAKLLHQNGRHKPWDFPSVHNDL [W8Q]	3.71
QEAKLLHRNGRHKPWDFPSVHNDL [W8R]	3.01
QEAKLLHSNGRHKPWDFPSVHNDL [W8S]	3.47
QEAKLLHTNGRHKPWDFPSVHNDL [W8T]	3.23
QEAKLLHVNGRHKPWDFPSVHNDL [W8V]	3.1
QEAKLLHYNGRHKPWDFPSVHNDL [W8Y]	2.42
QEAKLLHWAGRHKPWDFPSVHNDL [N9A]	2.71
QEAKLLHWCGRHKPWDFPSVHNDL [N9C]	2.41
QEAKLLHWDGRHKPWDFPSVHNDL [N9D]	2.87
QEAKLLHWEGRHKPWDFPSVHNDL [N9E]	2.73
QEAKLLHWFGRHKPWDFPSVHNDL [N9F]	1.98
QEAKLLHWGGRHKPWDFPSVHNDL [N9G]	2.59
QEAKLLHWHGRHKPWDFPSVHNDL [N9H]	2.73
QEAKLLHWIGRHKPWDFPSVHNDL [N9I]	2
QEAKLLHWKGRHKPWDFPSVHNDL [N9K]	2.92
QEAKLLHWLGRHKPWDFPSVHNDL [N9L]	1.83
QEAKLLHWMGRHKPWDFPSVHNDL [N9M]	2.1

Variant	protein stability index
QEAKLLHWPGRHKPWDFPSVHNDL [N9P]	2.56
QEAKLLHWQGRHKPWDFPSVHNDL [N9Q]	2.76
QEAKLLHWRGRHKPWDFPSVHNDL [N9R]	2.46
QEAKLLHWSGRHKPWDFPSVHNDL [N9S]	2.67
QEAKLLHWTGRHKPWDFPSVHNDL [N9T]	2.59
QEAKLLHWVGRHKPWDFPSVHNDL [N9V]	2.25
QEAKLLHWWGRHKPWDFPSVHNDL [N9W]	1.75
QEAKLLHWYGRHKPWDFPSVHNDL [N9Y]	2.33
QEAKLLHWNARHKPWDFPSVHNDL [G10A]	2.75
QEAKLLHWNCRHKPWDFPSVHNDL [G10C]	1.49
QEAKLLHWNDRHKPWDFPSVHNDL [G10D]	2.46
QEAKLLHWNERHKPWDFPSVHNDL [G10E]	2.8
QEAKLLHWNFRHKPWDFPSVHNDL [G10F]	2.37
QEAKLLHWNHRHKPWDFPSVHNDL [G10H]	2.48
QEAKLLHWNIRHKPWDFPSVHNDL [G10I]	2.48
QEAKLLHWNKRHKPWDFPSVHNDL [G10K]	2.48
QEAKLLHWNLRHKPWDFPSVHNDL [G10L]	2.42
QEAKLLHWNMRHKPWDFPSVHNDL [G10M]	2.53
QEAKLLHWNNRHKPWDFPSVHNDL [G10N]	2.8
QEAKLLHWNPRHKPWDFPSVHNDL [G10P]	2.69
QEAKLLHWNQRHKPWDFPSVHNDL [G10Q]	2.7
QEAKLLHWNRRHKPWDFPSVHNDL [G10R]	2.79
QEAKLLHWNSRHKPWDFPSVHNDL [G10S]	2.69
QEAKLLHWNTRHKPWDFPSVHNDL [G10T]	2.49

Variant	protein stability index
QEAKLLHWNVRHKPWDFPSVHNDL [G10V]	2.15
QEAKLLHWNWRHKPWDFPSVHNDL [G10W]	2.5
QEAKLLHWNYRHKPWDFPSVHNDL [G10Y]	2.9
QEAKLLHWNGAHKPWDFPSVHNDL [R11A]	3.24
QEAKLLHWNGCHKPWDFPSVHNDL [R11C]	2.55
QEAKLLHWNGDHKPWDFPSVHNDL [R11D]	3.33
QEAKLLHWNGEHKPWDFPSVHNDL [R11E]	3.58
QEAKLLHWNGFHKPWDFPSVHNDL [R11F]	2.58
QEAKLLHWNGGHKPWDFPSVHNDL [R11G]	2.64
QEAKLLHWNGHHKPWDFPSVHNDL [R11H]	2.64
QEAKLLHWNGIHKPWDFPSVHNDL [R11I]	2.76
QEAKLLHWNGKHKPWDFPSVHNDL [R11K]	2.61
QEAKLLHWNGLHKPWDFPSVHNDL [R11L]	2.34
QEAKLLHWNGMHKPWDFPSVHNDL [R11M]	3.1
QEAKLLHWNGNHKPWDFPSVHNDL [R11N]	3.05
QEAKLLHWNGPHKPWDFPSVHNDL [R11P]	2.33
QEAKLLHWNGQHKPWDFPSVHNDL [R11Q]	3.35
QEAKLLHWNGSHKPWDFPSVHNDL [R11S]	2.82
QEAKLLHWNGTHKPWDFPSVHNDL [R11T]	3.11
QEAKLLHWNGVHKPWDFPSVHNDL [R11V]	2.62
QEAKLLHWNGWHKPWDFPSVHNDL [R11W]	2.18
QEAKLLHWNGYHKPWDFPSVHNDL [R11Y]	2.28
